Measured values as given in the supplement of paper PMC12764529.
± gives the half width of the 95% confidence interval.

Assay: folding stability dG unfold from trypsin proteolysis; higher = more stable
Method in brief: (§1)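 How resistant each design was to proteolysis was captured as K50, inferred by Bayesian fitting of sequencing counts. Unfolding free energy was then derived relative to a sequence-predicted unfolded-state K50 and a shared folded-state K50, per protease or combined. Digestion used trypsin and chymotrypsin at 11 threefold-diluted concentrations plus a no-protease condition, on mini-proteins under 80 residues without cysteine in a PA-tagged cDNA display construct. Designs were kept only when AlphaFold2 dimer inter-PAE was above 15.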

| Sequence | folding stability dG unfold [kcal/mol] |
| --- | --- |
| SAGGSAGGSAAPLYELEILSVDLDPDNPTVYVLARIPGTSNYVLITFPPNGDVYAYASPLPSAGGSAGGSAG [r3_294_TrMRF] | 1.95 ± 0.06 |
| SAGGSAGGSAGKKKYKIVSIEIERNKDGNSLTVKIKLENGKELTLTFPTEEDLKNLKIKASAGGSAGGSAGG [r11_711_TrROS_Hall] | 1.59 ± 0.1 |
| SKIKILIAMTEDEIKKLAEELKKKGYEIKIKVKKIEKKKVKVKNKDGKTYEKEVVLVEVEIEIVPKGVKPSA [r9_991_TrROS_Hall] | 2.73 ± 0.43 |
| SAGGSAGGSAEPPEPEVVAVTVEITEEDGELTITVTNEDTGEKYTFTLKNVEVKPGDTLLIRSAGGSAGGSA [r18_89_TrROS_Hall] | 0.402 ± 0.26 |
| SAGGSAGGSAGMETTVLEEVPPEELAKGQTRLEKLPDGTIIERTVAPEGEVVETKTIPPKSAGGSAGGSAGG [r17_2_JUSTAS] | 1.94 ± 0.21 |
| SAGGSAGGSAGAPNIVVVTLTRDALFYNPVEGKWEVKPVTLTRAFTSKEEADKWLEEIGLSAGGSAGGSAGG [r11_984_TrMRF] | 2.95 ± 0.091 |
| SAGGSAGGSMIVVPESVSPEEAEATARQVAQELGISPDTPLEVEIKEVKTGENSVYEIRVTLRSAGGSAGGS [r12_252_JUSTAS] | 0.097 ± 0.056 |
| SAGGSAGGSAGMLARITLSTPEKPVEYIVPESEVEEYIKKLNLPEDTEVTVTPVDPAALLSAGGSAGGSAGG [r17_395_JUSTAS] | 0.574 ± 0.022 |
| SAGGGSMPASITTEVTETTTPDATVTKSTVYYPDTGKWLEETTTTGPTTTITTTKFPDGSTTVTTAASAGGS [r16_657_JUSTAS] | 0.275 ± 0.052 |
| SAGGSAGGSAGMDIPLTFTAPNADGQPVKVRVEKIIPEKGYLLVRVEYPDDREETFLDPFSAGGSAGGSAGG [r11_742_TrMRF] | -0.118 ± 0.14 |
| SGTRTVTVTGAVLSRLPDGTLVTDPGEAPVTVPVPPPKPRIEVPPELREKLREAAEKLGLELTEEDIETASA [r9_487_TrMRF] | -0.208 ± 0.36 |
| SAGGSAGGSEEEKLKKLKEKLKPPKIKVKIEVKVEYDKETGKLKVEATVEINGKKYKLTIEFPSAGGSAGGS [r20_230_TrROS_Hall] | 3.11 ± 0.19 |
| SAGGSAGGSAGVEINIFMPSWEQAKHRAKSIARELRERGLPPNAEIKIKIHPIDPEDMGPSAGGSAGGSAGG [r17_180_TrROS] | -0.0827 ± 0.13 |
| SMSVVVPPDEGLTVTLTTLPGGTIEIHVGDTVLTRDVAPGETLTVTVPPDRTGNTVTVVGPGGVVVTSSGSA [r9_143_JUSTAS] | 1.18 ± 0.048 |
| SAGMSITIESDTNAPPDLPDIGEEEKLALAEELKEKALADPRYPDEEVVIVRPFKTPGGARWTITVVVSAGG [r19_132_JUSTAS] | 1.31 ± 0.042 |
| SAGGMTLRIVLPEEEAEKLVEELKKIFPGAEIKVKKVEYNEETGEKLVVLEIKFKSKEEAEKAKKLLESAGG [r13_539_TrROS_Hall] | 3.54 ± 0.1 |
| SAGGSAMTVTYTPSTKTITITDPSNGKPVKVTVTEEKPVVPGKNVYELTVTVPDTGGEKKILITLPSAGGSA [r15_209_JUSTAS] | 0.848 ± 0.055 |
| SAGGSAGGSAMPTYDNPDSLSIEEVKEKVAKEAKEKYPGKSNITVPVKFSDGTEYTVTIKIESAGGSAGGSA [r18_449_JUSTAS] | -0.288 ± 0.05 |
| SAGGGSFINISKKEIAEAISKLIGKDYPLEDVKVSVTTLPENKTIINVEIKLPNTTETLYIPILFDVSAGGS [r16_42_TrMRF] | 2.09 ± 0.094 |
| SAGGSAGGSAGKPITADEVAERVARRLRELFGPDYDINVKVVKVLPGDYVLVDVEITGDLSAGGSAGGSAGG [r11_153_TrMRF] | 2.27 ± 0.032 |
| SEYSRIEFEDYTVLVVKKTLPNGKPLYLVRLYRKEDPKVDPVEVDSPEEAEEAVKELLKKHLPGEEVEKESA [r9_749_TrMRF] | 2.3 ± 0.11 |

| Sequence | folding stability dG unfold [kcal/mol] |
| --- | --- |
| SAGMTSVLTLEEVSPEELRAKIDEALATLPEGTIFVLPSEELAEVVKELHPGVPVVVRDEATGRLTEVGSAG [r5_391_JUSTAS] | 1.17 ± 0.041 |
| SAGGMKITTKDGSTITVETEPGKVTITIKPPGDGSTTTLPFPAPSEEEGIEAAIKKIEEEGNVEEIELSAGG [r13_579_JUSTAS] | 0.064 ± 0.1 |
| SAGGSAGGSAGGGSVVTTETSVSPNGVVTTTTTTTFLDPDGNPLGTTTTTTAHAAPPTTSAGGSAGGSAGGS [r10_403_JUSTAS] | 2.58 ± 0.076 |
| SAGGSATLTLPEDVVKEVFTAKVGDKEYRPVVFRSPDDEWVLVLVLRRDPNGNTSAVAALLPKDAVSAGGSA [r15_986_TrMRF] | 1.49 ± 0.047 |
| SAGGKKTYKVRIEIKVTDPNGKKRTIEIELEVPESEEEAEKLAKELAEKLKEKGYKVEIVKIEVEPLSAGGS [r16_525_TrROS_Hall] | 3.98 ± 0.2 |
| SAGGSGMEKYTVTIDLKFYTPETGKTYTKTVTLTTTSIEEAIKAITEKLTPPDMKIEITSITVTPSSAGGSA [r2_320_JUSTAS] | 4.34 ± 0.25 |
| SAMTIVLTLDEIAELLGLEKGESVEELRERIRELIRRLEEEGYRVTSITIEEVDGELVITVEIEPPPPESAG [r14_158_TrROS_Hall] | 3.38 ± 0.2 |
| SAGGSAGGSASSSPVTVETKTLEVEFKDDEIIVKEKVTTKYPNGKTTVTVTTTTIKVDPNLDSAGGSAGGSA [r18_291_JUSTAS] | 1.21 ± 0.1 |
| SAGGSAGGMVIKLPLPNDLYAEIPVYSNSDGIVTARIVLYDPSTEEKVEKPFELPFEELLDLLSSAGGSAGG [r6_858_TrMRF] | 0.328 ± 0.027 |
| SSMSMKTITIDATFTSEEEAKKYAEEIKKKIPPENIKNISISSTPELVTGDGTYKGEKIKVTITIEIVKKSA [r9_605_JUSTAS] | 1.64 ± 0.17 |
| SAGGMLKIEVTVPAEYPEQAEEIAAEIRDLLEAGPYVKVLKVEIEPTEDTVRVTVVVEIEFDSPEELISAGG [r13_39_TrMRF] | 1.36 ± 0.17 |
| SASITIPVDELKDFAEHFPGFNVGVNPETGMFQIFFPENGWMINIDIEVDPDDPDTIEIDIEIYPMPPNSAG [r14_604_TrROS] | 1.78 ± 0.13 |
| SAGGSAGGSADKIEIRVKLKIPNTDEILTFPIWVDPENPEEVAKAIAAWLEKNGYEIESFEGSAGGSAGGSA [r18_3_TrMRF] | 3.53 ± 0.23 |
| SAGGSAGGSAMEILSKEIIPNNDLIIIDIKVKKKNKEYIYKLIIKGDKIIKISEIEIDDAPSAGGSAGGSAG [r3_48_TrMRF] | 1.37 ± 0.13 |
| SAGGSAGGSAGTAEEIAKALEEAGFKVEKLPDGTLKVTVRNPETEETVEITLTLEEIEKLSAGGSAGGSAGG [r11_994_TrROS_Hall] | 2.38 ± 0.084 |
| SAGGSMKPSKVTEVTHPDGTRFTVTEYPEVPLLTLTIERPETGTTTTVKTKSREEAEKVLAELVASSAGGSA [r2_70_JUSTAS] | 0.696 ± 0.068 |
| SAGGSAGGSAGGSSMAIKKVSEFLLRPENGELIKVTVYRKPGPETIVTVIGDKTYTFEPSAGGSAGGSAGGS [r4_114_JUSTAS] | -0.855 ± 0.25 |
| SAGGSAGGSAKKPKKFKITKISTVKNKNGKTYYKLVIEDEKTKKKYVFVFPKNKEEILKALSAGGSAGGSAG [r3_57_TrROS_Hall] | 2 ± 0.061 |
| SAGGSAGGWITPDAAKEFADKWGFDDVNVEVLDVDPNNNYVRVKVTARNPKNGNERPIGEFWFPSAGGSAGG [r6_699_TrROS] | 0.585 ± 0.056 |
| SAGGSAGGSAGMVTIYADPDGSYTAHFPDGSSASYSSLEEVKANLKAKYPDVKDVVIEKTSAGGSAGGSAGG [r11_806_JUSTAS] | 2.17 ± 0.088 |
| SAGGMIKVEVEPLEDGVLRVRVYVPHPDGPPIEIEVVFPPEVGSLEEALEKAVEVVEEFLKKHNIPLSAGGS [r8_464_TrMRF] | 2.25 ± 0.082 |

Assay: folding stability dG unfold (combined trypsin and chymotrypsin); higher = more stable
Method in brief: as §1

| Sequence | folding stability dG unfold [kcal/mol] |
| --- | --- |
| SAGGSAGGSAAPLYELEILSVDLDPDNPTVYVLARIPGTSNYVLITFPPNGDVYAYASPLPSAGGSAGGSAG [r3_294_TrMRF] | 2.25 ± 0.17 |
| SAGGSAGGSAGKKKYKIVSIEIERNKDGNSLTVKIKLENGKELTLTFPTEEDLKNLKIKASAGGSAGGSAGG [r11_711_TrROS_Hall] | 2.78 ± 0.075 |
| SKIKILIAMTEDEIKKLAEELKKKGYEIKIKVKKIEKKKVKVKNKDGKTYEKEVVLVEVEIEIVPKGVKPSA [r9_991_TrROS_Hall] | 3.27 ± 0.73 |
| SAGGSAGGSAEPPEPEVVAVTVEITEEDGELTITVTNEDTGEKYTFTLKNVEVKPGDTLLIRSAGGSAGGSA [r18_89_TrROS_Hall] | 1.21 ± 0.56 |
| SAGGSAGGSAGMETTVLEEVPPEELAKGQTRLEKLPDGTIIERTVAPEGEVVETKTIPPKSAGGSAGGSAGG [r17_2_JUSTAS] | 1.09 ± 0.48 |
| SAGGSAGGSAGAPNIVVVTLTRDALFYNPVEGKWEVKPVTLTRAFTSKEEADKWLEEIGLSAGGSAGGSAGG [r11_984_TrMRF] | 3.5 ± 0.095 |
| SAGGSAGGSMIVVPESVSPEEAEATARQVAQELGISPDTPLEVEIKEVKTGENSVYEIRVTLRSAGGSAGGS [r12_252_JUSTAS] | 0.199 ± 0.092 |
| SAGGSAGGSAGMLARITLSTPEKPVEYIVPESEVEEYIKKLNLPEDTEVTVTPVDPAALLSAGGSAGGSAGG [r17_395_JUSTAS] | 1.4 ± 0.037 |
| SAGGGSMPASITTEVTETTTPDATVTKSTVYYPDTGKWLEETTTTGPTTTITTTKFPDGSTTVTTAASAGGS [r16_657_JUSTAS] | -0.175 ± 0.11 |
| SAGGSAGGSAGMDIPLTFTAPNADGQPVKVRVEKIIPEKGYLLVRVEYPDDREETFLDPFSAGGSAGGSAGG [r11_742_TrMRF] | -0.0666 ± 0.08 |
| SGTRTVTVTGAVLSRLPDGTLVTDPGEAPVTVPVPPPKPRIEVPPELREKLREAAEKLGLELTEEDIETASA [r9_487_TrMRF] | -0.365 ± 0.26 |
| SAGGSAGGSEEEKLKKLKEKLKPPKIKVKIEVKVEYDKETGKLKVEATVEINGKKYKLTIEFPSAGGSAGGS [r20_230_TrROS_Hall] | 3.49 ± 0.71 |
| SAGGSAGGSAGVEINIFMPSWEQAKHRAKSIARELRERGLPPNAEIKIKIHPIDPEDMGPSAGGSAGGSAGG [r17_180_TrROS] | -0.226 ± 0.25 |
| SMSVVVPPDEGLTVTLTTLPGGTIEIHVGDTVLTRDVAPGETLTVTVPPDRTGNTVTVVGPGGVVVTSSGSA [r9_143_JUSTAS] | 0.95 ± 0.044 |
| SAGMSITIESDTNAPPDLPDIGEEEKLALAEELKEKALADPRYPDEEVVIVRPFKTPGGARWTITVVVSAGG [r19_132_JUSTAS] | 1.32 ± 0.17 |
| SAGGMTLRIVLPEEEAEKLVEELKKIFPGAEIKVKKVEYNEETGEKLVVLEIKFKSKEEAEKAKKLLESAGG [r13_539_TrROS_Hall] | 3.73 ± 0.083 |
| SAGGSAMTVTYTPSTKTITITDPSNGKPVKVTVTEEKPVVPGKNVYELTVTVPDTGGEKKILITLPSAGGSA [r15_209_JUSTAS] | 0.55 ± 0.11 |
| SAGGSAGGSAMPTYDNPDSLSIEEVKEKVAKEAKEKYPGKSNITVPVKFSDGTEYTVTIKIESAGGSAGGSA [r18_449_JUSTAS] | -0.405 ± 0.21 |
| SAGGGSFINISKKEIAEAISKLIGKDYPLEDVKVSVTTLPENKTIINVEIKLPNTTETLYIPILFDVSAGGS [r16_42_TrMRF] | 1.91 ± 0.068 |
| SAGGSAGGSAGKPITADEVAERVARRLRELFGPDYDINVKVVKVLPGDYVLVDVEITGDLSAGGSAGGSAGG [r11_153_TrMRF] | 2.28 ± 0.044 |
| SEYSRIEFEDYTVLVVKKTLPNGKPLYLVRLYRKEDPKVDPVEVDSPEEAEEAVKELLKKHLPGEEVEKESA [r9_749_TrMRF] | 3.08 ± 0.15 |
